Data reported in patent publication US9164103B2, “Monitoring and inhibiting human immunodeficiency virus infection by modulating HMGB1 dependent triggering of HIV-1 replication and persistence” (priority 2008, dated 2015).

How the values were obtained:
[1] = test system: HIV-2; test: HIV-2 replication in infected iDCs (p24 ELISA in culture supernatant); format: cell-based; settings: HIV-2-infected iDC, day 3
Description: FIGS. 6 (a), (b) and (c). Exogenous rh-HMGB1 triggers HIV-1 and HIV-2 replication in iDC. (a) HIV-1-infected iDC were cultured alone or in the presence of aNK cells for 3 days. Rh-HMGB1 (1 μg/ml) was added in some cultures. HIV replication was measured by p24 quantification in culture supernatant (b) HIV1-infected iDC were cultured alone or in the presence of aNK cells for 3 days. Blocking anti-HMGB1 antibodies (10 μg/ml) or glycyrrhizin (10 μg/ml) were added at culture initiation. HIV replication was measured by p24 quantification in culture supernatant. The mean±sd of three independent experiments is shown. Statistical comparisons were made with the non parametric Mann-Whitney test. * p<0.05; (c) HIV-2-infected iDC were cultured alone or in the presence of aNK cells for 3 days. Rh-HMGB1 (1 μg/ml) was added in some cultures. HIV replication was measured by p24 quantification in culture supernatant. […]
2—NK-DC cocultures: cells were harvested, washed three times with RPMI containing 10% FCS and, when indicated, aNK cells were added at a NK:DC ratio of 1:5. […] NK-DC cocultures lasted 3 to 7 days before quantification of viral production in culture supernatants.
3—Quantification of HIV-2 viral production: the concentration of HIV-2 particles in the supernatants was determined with the p24 ELISA kit (Ingen, Belgium).

[2] = test system: iDC; test: Direct phenotypic maturation of iDCs (flow cytometry of maturation markers); format: cell-based, human
Description: Co-staining with HLA-DR and CD86 specific antibodies allowed the identification of mature DCs (CD86^brightHLA-DR^bright). Data from a representative experiment out of three independent experiments are shown. […] The proportion of mDCs induced by LPS (DC0) (78.1% CD86^brightHLA-DR^bright) is shown as a positive control. […] These experiments have been performed on primary cells from a number of donors, and representative data from three of them are shown. When indicated, statistical analyses were made with the non parametric Mann-Whitney test. * p<0.05, ** p=0.02.
The maturation status of DCs was determined by flow cytometry with CD86 and HLA-DR—specific antibodies. […] (b) iDC (10^6 cells/ml) were cultured for 48 h with increasing concentrations (1-10 μg/ml) of rh-HMGB1. Cells were then stained with anti-CD86, -HLA-DR, -CD80, -CD83, DC-LAMP and -CD40 antibodies and analyzed by flow cytometry.

[3] = test system: RAGE; test: Surface expression of RAGE on DCs (flow cytometry); format: cell-based, human; settings: uninfected iDCs, 1 μg/ml
Description: (d) Flow cytometry detection of surface expression of RAGE by iDCs, DC0, or iDCs incubated with rh-HMGB1 (1 μg/ml). iDCs were either non infected or infected with HIV-1 (1 ng/ml p24 for 3 h). (e) iDC, DC0, uninfected or HIV-1-infected iDC cocultured for 24 h with aNK cells, were incubated with rh-HMGB1 (1 μg/ml) and subsequently stained with anti-RAGE antibodies and analyzed by flow cytometry. NK cells were excluded from the analysis through the co-staining with CD3- and CD56-specific antibodies (CD3^−CD56^+).
The possible involvement of RAGE during NK-DC cross-talk was evaluated with the same approach, comparing RAGE expression on DCs cocultured with aNK cells and DC cultured alone.
Phenotypic analysis of DCs and characterization of their maturation stage was performed by flow cytometry. DCs were stained for 20 min at 4° C. with antibodies specific for CD80, CD83, CD86, HLA-DR, CD40, DC-LAMP or DC-SIGN (all antibodies from BD Biosciences, San Jose, Calif.) diluted in 100 μl of PBS/10% FCS/0.1% NaN3. In some experiments, antibody specific for HMGB1-receptor, RAGE (Abcam), was used to stain DCs. After two washings, cells were fixed in 1% PFA, immediately acquired on a FACScalibur (Becton Dickinson) and analyzed with Flow Jo software.

[4] = test system: R5-HIV-1Ba-L; test: HIV-1 replication in infected iDCs (p24 ELISA in culture supernatant); format: cell-based; settings: 3 days, 1 μg/ml
Description: FIGS. 6 (a), (b) and (c). Exogenous rh-HMGB1 triggers HIV-1 and HIV-2 replication in iDC. (a) HIV-1-infected iDC were cultured alone or in the presence of aNK cells for 3 days. Rh-HMGB1 (1 μg/ml) was added in some cultures. HIV replication was measured by p24 quantification in culture supernatant (b) HIV1-infected iDC were cultured alone or in the presence of aNK cells for 3 days. Blocking anti-HMGB1 antibodies (10 μg/ml) or glycyrrhizin (10 μg/ml) were added at culture initiation. HIV replication was measured by p24 quantification in culture supernatant. The mean±sd of three independent experiments is shown. Statistical comparisons were made with the non parametric Mann-Whitney test. * p<0.05; (c) HIV-2-infected iDC were cultured alone or in the presence of aNK cells for 3 days. Rh-HMGB1 (1 μg/ml) was added in some cultures. HIV replication was measured by p24 quantification in culture supernatant.
Exogenous HMGB1 was recently reported to increase HIV-1 replication in infected monocytic cell lines38, and to induce in vitro the reactivation of HIV-1 in PBMCs from HIV-1-infected patients under antiretroviral therapy39. Therefore, the question of the role of HMGB1 in the NK-dependent triggering of HIV replication in DCs was addressed. […] To investigate the influence of HMGB1 in the triggering of HIV-1 replication in infected-iDC-aNK cocultures, HMGB1-specific neutralizing antibodies or glycyrrhizin were added to these cocultures and p24 production was measured in the supernatant. […] They also indicate that aNK cell-dependent stimulation of HIV-1 replication in iDCs is mediated by HMGB1.
Virus stock preparation was prepared by amplification of R5-HIV-1Ba-L on MDM from healthy donors. Viral stock was then clarified by centrifugation prior to determination of HIV1 p24 concentration. iDCs were plated in 96-well culture plates at 200,000 cells/well and incubated for 3 hours at 37° C. in a 5% CO2 atmosphere with R5-HIV-1BAL at various concentrations (0.001 to 10 ng p24/ml). Cells were harvested, washed four times with media containing 10% FCS and, when indicated, rNK or aNK cells were added at a NK:DC ratio of 1:5, unless otherwise indicated. NK-DC cocultures lasted 24 h before analysis of the maturation stage of DCs and/or quantification of viral production. In some experiments (FIG. 6), HIV-1 infected iDCs were incubated alone or with aNK cells for 3 days, in the presence of rh-HMGB1 (1 μg/ml) (R&DSystems), and in some cultures in the presence of rabbit antiHMGB1 Abs (10 μg/ml) (Abcam, Cambridge, UK) or Glycyrrhizin (10 μg/ml).
The concentration of HIV-1 in the supernatant of infected cell cultures was determined by measuring the amount of p24 protein by ELISA (Ingen, Belgium). DNA from cells was extracted using the GIAamp DNA Blood Mini Kit (Qiagen, Basel, Switzerland) and quantified HIV-1 proviral load by RT-PCR as described previously54. The frequency of HIV-1-infected cells was determined by flow cytometry to detect intracellular p24 molecule. Cells were surface stained with antibodies specific for CD40 (BD Biosciences, San Jose, Calif.) to target DC and intracellular stained with p24-specific antibodies (Coulter). Stained cells were fixed in 1% PFA, immediately acquired on a FACScalibur (Becton Dickinson) and analyzed with FlowJo software. In some experiments infected DCs were imaged, after immunofluorescence, by laser scanning confocal microscopy.

[5] = test system: iDCs; test: Cytokine and chemokine production by DCs (MAP/Luminex); format: cell-based, human; settings: iDCs 48 h, 1 or 10 μg/ml
Description: FIG. 3 (a)-(e). aNK-dependent maturation of HIV-1-infected iDCs is mediated by HMGB1 and involves RAGE. (a) Left panel: iDCs were cultured for 24 h either alone or with aNK cells, in the presence of blocking anti-HMGB1 antibodies (10 μg/ml) or glycyrrhizin (10 μg/ml). The maturation status of DCs was determined by flow cytometry with CD86 and HLA-DR—specific antibodies. Right panel: same experiment, but performed with HIV-1 infected iDCs. Data represent mean±sd of at least three independent experiments, and statistical comparisons were made with the non parametric Mann-Whitney test. * p<0.05. (b) iDC (10^6 cells/ml) were cultured for 48 h with increasing concentrations (1-10 μg/ml) of rh-HMGB1. Cells were then stained with anti-CD86, -HLA-DR, -CD80, -CD83, DC-LAMP and -CD40 antibodies and analyzed by flow cytometry. (c) Influence of rh-HMGB1 on cytokine and chemokine production (determined by MAP) by DCs. iDCs (10^6 cells/ml) were incubated for 48 h in medium or in presence of rh-HMGB1 (1 or 10 μg/ml). As a positive control, iDCs were stimulated with LPS (DC0). […] (e) iDC, DC0, uninfected or HIV-1-infected iDC cocultured for 24 h with aNK cells, were incubated with rh-HMGB1 (1 μg/ml) and subsequently stained with anti-RAGE antibodies and analyzed by flow cytometry. […]

B1: rh-HMGB1: recombinant human HMGB1 protein (R&D Systems), added exogenously (protein, UniProt P09429 1-215, looked up)
High mobility group protein B1: MGKGDPKKPRGKMSSYAFFVQTCREEHKKKHPDASVNFSEFSKKCSERWKTMSAKEKGKFEDMAKADKARYEREMKTYIPPKGETKKKFKDPNAPKRPPSAFFLFCSEYRPKIKGEHPGLSIGDVAKKLGEMWNNTAADDKQPYEKKAAKLKEKYEKDIAAYRAKGKPDAAKKGVVKAEKSKKKKEEEEDEEDEEDEEEEEDEEDEDEEEDDDDE
In the case of B1, the “HIV-2 viral replication (p24)” value [1] is reported as “slight increase in viral replication”, the “percentage of CD86bright HLA-DRbright DCs” value ([2]; 10 μg/ml, 48 h of culture, medium alone 65%) is reported as 71% and the “phenotypic maturation of iDC” value ([2]; 1 to 10 μg/ml, 24 h, similar at 48 h) is reported as “did not induce phenotypic maturation of iDC”. The “expression of CD80, CD83 and DC-lamp” value ([2]; rh-HMGB1-treated DCs compared with mDC (DC0)) was “not fully mature”, the “RAGE expression on iDCs” value [3] was “down-regulation of RAGE” and the p24 production ([4]; HIV-1-infected iDC cocultured with aNK cells) was “significant stimulatory effect”. The “production of p24 in culture supernatants” value ([4]; HIV-1-infected iDC cultured alone) was “enhancing dramatically the production of p24” and the “release of the chemokines MCP1, MIP-1α, MIP-1β and IL-8” value [5] was “increased release”.
